Experimental data from paper PMC2897144 (Hypertension, 2009).

B1: G protein-coupled receptor kinase type 4 (enzyme, human (endogenous in RPTCs), UniProt P32298 1-578, looked up)
chain: MELENIVANSLLLKARQGGYGKKSGRSKKWKEILTLPPVSQCSELRHSIEKDYSSLCDKQPIGRRLFRQFCDTKPTLKRHIEFLDAVAEYEVADDEDRSDCGLSILDRFFNDKLAAPLPEIPPDVVTECRLGLKEENPSKKAFEECTRVAHNYLRGEPFEEYQESSYFSQFLQWKWLERQPVTKNTFRHYRVLGKGGFGEVCACQVRATGKMYACKKLQKKRIKKRKGEAMALNEKRILEKVQSRFVVSLAYAYETKDALCLVLTIMNGGDLKFHIYNLGNPGFDEQRAVFYAAELCCGLEDLQRERIVYRDLKPENILLDDRGHIRISDLGLATEIPEGQRVRGRVGTVGYMAPEVVNNEKYTFSPDWWGLGCLIYEMIQGHSPFKKYKEKVKWEEVDQRIKNDTEEYSEKFSEDAKSICRMLLTKNPSKRLGCRGEGAAGVKQHPVFKDINFRRLEANMLEPPFCPDPHAVYCKDVLDIEQFSVVKGIYLDTADEDFYARFATGCVSIPWQNEMIESGCFKDINKSESEEALPLDLDKNIHTPVSRPNRGFFYRLFRRGGCLTMVPSEKEVEPKQC
B2: caveolin-1 (natural protein, human (endogenous in RPTCs), UniProt Q03135 1-178, looked up)
chain: MSGGKYVDSEGHLYTVPIREQGNIYKPNNKAMADELSEKQVYDAHTKEIDLVNRDPKHLNDDVVKIDFEDVIAEPEGTHSFDGIWKASFTTFTVTKYWFYRLLSALFGIPMALIWGIYFAILSFLHIWAVVPCIKSFLIEIQCISRVYSIYVHTVCDPLFEAVGKIFSNVRINLQKEI

Key:
caveolin-1 = target: B2; assay: co-IP
[1] = target: B1; assay: co-IP

Binder | decrease of co-immunoprecipitation in uRPTCs relative to nRPTCs (caveolin-1) | decrease of co-immunoprecipitation in uRPTCs relative to nRPTCs [1]
B1 | 58% | 
B2 |  | 55.6%
